In the supplement of paper PMC10567573:

B1: SMOC2 (parent)
chain: DCAGSPQKPLCASDGRTFLSRCEF
B2: ZNF511 (parent)
chain: HLYPADFRFDKPKKSRSPASAEAP

Variants of: B1
Assay: protein stability index of a GFP-peptide fusion (GPS, HEK-293T) (PSI 1-6); higher = more stable
Conditions: c terminus: a fixed tail appended
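Further: lentivirally expressed fusions sorted by FACS into six bins by GFP to DsRed ratio, PSI derived from sequencing read proportions per bin multiplied by bin number.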

Protein stability index, by site and new letter:
D14: T 2.82, F 1.81, M 2, Y 2.26, S 3.19, N 2.47, V 2.6, K 2.4, L 2.2, Q 2.39, R 2.03, C 1.6, H 1.78, P 2.36
L19: C 3.85, K 3.53, M 2.99, D 4.93, R 3.35, I 2.07, H 3.82, P 3.97, Y 2.49, G 3.07, W 2.34, Q 2.49, F 4.33, S 3.06, A 2.44, V 1.88, N 4.01, T 2.59, E 3.51
R21: P 3.91, K 2.67, A 2.71, Y 2.27, C 2.44, D 4.14, M 1.68, W 1.76, G 4.57, Q 3.1, N 3.78, E 3.62, L 3.02, T 1.9, V 2.65, F 2.02, H 3.26, I 1.67

Variants of: B2
Assay: as above
Conditions: c terminus: a fixed tail appended

Protein stability index of substitutions, site by site:
H1: W 2.69, Q 3.65, D 4.13, V 3.67, G 4.7, A 3.95, R 3.57, K 4.05, I 2.85, T 4.19, E 3.81, F 4.32, L 3.94, P 4.58, N 4.2, Y 2.08, C 3.59, S 4.48, M 4.09
P4: T 3.77, L 3.56, H 3.95, N 3.78, A 3.96, K 4.5, D 4.22, Q 3.94, V 3.24, I 3.56, R 3.73, F 2.85, C 3.54, W 2.33, S 3.9, Y 2.73, M 3.43, G 3.21, E 4.33
F7: G 4.42, E 5.23, A 4.81, C 4.29, D 4.63
Y3: Q 3.85, K 3.84, N 2.43, C 3.55, A 4.14, G 4.38, E 3.71, H 2.69, R 4.26, L 4.36, S 3.64, F 3.13, V 3.81, P 4.73, T 4.65, M 4.4, W 3.71, I 3.73, D 4.58
L2: V 2.69, C 3.53, F 4.37, W 2.87, K 4.6, G 4.37, I 1.9, Q 3.59, P 4.52, T 4.64, R 4.1, N 4.38, M 3.35, D 4.91, E 4.73, A 4.37, H 3.58, Y 3.84, S 4.63
A5: R 3.21, I 3.5, C 3.06, H 3.06, S 2.69, Q 2.16, K 2.97, Y 2.79, G 2.62, E 2.3, V 3.6, W 1.63, T 3.11, P 4.01, M 2.48, F 2.63, D 2.32, L 3.02, N 2.29
D6: A 2.12, Q 2.18, C 2.52, P 3.19, G 3.23, E 2.1, M 1.55, T 2.48, W 2.87, K 2.22, S 3.17, H 3, N 2.82, R 2.59, L 2.61, I 1.47
